# Measured values taken from patent US20110020432A1, “COMPOSITIONS AND METHODS OF USE FOR POST-RADIATION PROTECTION” (TERAPIO CORPORATION, priority 2009, published 2011).
# B1: RLIP76 protein: ubiquitous multi-specific efflux pump protein; human sequence of 655 amino acids, GenBank NP—006779; recombinant (protein, UniProt Q15311 2-655, looked up)
# RalA-binding protein 1: TECFLPPTSSPSEHRRVEHGSGLTRTPSSEEISPTKFPGLYRTGEPSPPHDILHEPPDVVSDDEKDHGKKKGKFKKKEKRTEGYAAFQEDSSGDEAESPSKMKRSKGIHVFKKPSFSKKKEKDFKIKEKPKEEKHKEEKHKEEKHKEKKSKDLTAADVVKQWKEKKKKKKPIQEPEVPQIDVPNLKPIFGIPLADAVERTMMYDGIRLPAVFRECIDYVEKYGMKCEGIYRVSGIKSKVDELKAAYDREESTNLEDYEPNTVASLLKQYLRDLPENLLTKELMPRFEEACGRTTETEKVQEFQRLLKELPECNYLLISWLIVHMDHVIAKELETKMNIQNISIVLSPTVQISNRVLYVFFTHVQELFGNVVLKQVMKPLRWSNMATMPTLPETQAGIKEEIRRQEFLLNCLHRDLQGGIKDLSKEERLWEVQRILTALKRKLREAKRQECETKIAQEIASLSKEDVSKEEMNENEEVINILLAQENEILTEQEELLAMEQFLRRQIASEKEEIERLRAEIAEIQSRQQHGRSETEEYSSESESESEDEEELQIILEDLQRQNEELEIKNNHLNQAIHEEREAIIELRVQLRLLQMQRAKAEQQAQEDEEPEWRGGAVQPPRDGVLEPKAAKEQPKAGKEPAKPSPSRDRKETSI
# How the values were obtained:
# [1] = reported in the scientific literature; cited from earlier work
# mice = details: whole animal studies; reported DRF; cited from earlier work
# [2] = tested on: wild-type (+/+) and homozygous (−/−) RIP1 mice; assay: Survival of wild-type and RIP1 knockout mice after X-irradiation, RLIP76 liposomes i.p.; assay type: in vivo
# Experimental: FIG. 5. Effect of RLIP76 on survival after higher doses of X irradiation. Four wild-type (+/+) RIP1 mice and four homozygous (−/−) mice were each exposed to 750 cGy X irradiation and treated with control liposomes administered by i.p. injection (triangles, homozygous RIP1 mice; diamonds, wild-type RIP mice), or 400 μg RLIP76 liposomes administered by i.p. injection (squares, homozygous RIP1 mice; circles, wild-type RIP1 mice), given 12 hours after exposure.
# As disclosed in U.S. Ser. No. 11/741,447, C57B mice that carry both copies of the RIP1 (mouse version of RLIP76) gene (wild-type; +/+), one copy of the RIP1 gene (heterozygous; +/−), or no copies of the RIP1 gene (homozygous; −/−) were created using Cre-Lox technology that can selectively suppress genes (Lexicon Genetics, Incorporated, The Woodlands, Tex.). Western blot analysis of tissues from homozygous RIP 1 knockout mice was performed after i.p. injection of RLIP76-liposomes. […]
# If loss of RIP1 was the major determining factor in this acquired radiation sensitivity, replacement of this deficit should reverse radiation […]. […] Liposomes were prepared in sufficient quantities and administered via intraperitoneal (i.p.) injection to homozygous RIP1 mice. […]
# C57BL6/albino mice = assay: Survival after whole body X-irradiation, oral RLIP76 proteoliposomes (dose and time response); assay type: in vivo
# Experimental: In order to investigate whether RLIP76 could be effective when delivered more than 24 hours after radiation exposure, a series of studies were conducted to explore the protective benefit of RLIP76 when given at varying doses, exposure levels, and times after exposure. All mice were C57BL6/albino strain, the strain most commonly used for radiation effect models. Exposure was delivered by whole body X-irradiation with a Varian Clinac Linear accelerator (2100C) at the Texas Cancer Center (Arlington, Tex.). A 6-MeV photon beam was used at a rate of 400 cGy/minute. Mice were isolated to one side of their cage on top of 1.5 cm of superflab bolus and the field of treatment centered on them. Total dose was split into two fractions, anterior and posterior, by rotating the accelerator gantry 180 degrees. Unless otherwise specified, all experiments were performed on six mice per group.
# Dose and time dependency was investigated over a range of radiation exposures. Initially, six groups of wild-type mice were exposed to 500 cGy of radiation, and then treated with no RLIP76 proteoliposomes (control) or various dosages of RLIP76 proteoliposomes given at various times after the radiation exposure. […]
molecule,measurement,setting,value
"Cc1cc(C(C)(C)C)c(O)c(C(C)(C)C)c1 [BHT, butylated hydroxytoluene]",radioprotective effect on its own,[1],radioprotective effect
"CC1=NN(c2ccccc2)C(=O)C1 [edaravone, 3 methyl-1-phenyl-2-pyrazolin-5-one]",dose-reduction factor (DRF),mice,1.3
"CC1(C)CC(O)CC(C)(C)N1[O] [tempol, 4-hydroxy-2,2,6,6-tetramethylpiperidinyloxy]",dose-reduction factor (DRF),mice,1.3
B1,survival as compared with RIP1+/+ mice,"[2]; RIP1−/− mice supplemented with RLIP76, 750 cGy",significantly improved survival
same,reversal of radiation sensitivity,"[2]; mice genetically deficient in RLIP76 protein, supplementation by intravenous or oral administration",can be reversed
same,rescue with delayed first dose,C57BL6/albino mice; initial dose given a full 24 hours or more after the radiation exposure,significant rescue
same,increase in survival,"C57BL6/albino mice; wild-type mice, radiation dose that normally results in complete lethality by day 30 (500 cGy), 2 doses of 100 micrograms, oral",200%
